Source: EP4616869A1, “FAP TARGETED ANTIBODY-DRUG CONJUGATES” (Oncomatryx Biopharma, S.L., priority 2024, dated 2025)
Like-named read-outs stand apart in the source and are kept apart here. Non-standard residues stand in square brackets, D forms with d. Residues, ends and D or L forms follow the SMILES beside them. *: point of attachment. Dolaproine = CO[C@@H]([C@@H]1CCCN1)[C@@H](C)C(=O)O; Dil = CC[C@H](C)[C@H](NC)[C@@H](CC(=O)O)OC; X1 = C[C@@H](N*)[C@@H](O)c1ccccc1; NMeV = CN[C@H](C(=O)O)C(C)C

Assays:
[1] = test system: HCT116 (low Pgp expression); test: Cell viability assay (crystal violet staining), payloads, HCT116; type: cell-based; conditions: HCT116, 48 hours incubation
Description: (§1) The cytotoxic activity of A1B1 cytolysin and MMAE payloads was analyzed via cell-viability assay using the colorectal cancer cell lines HCT15 (high Pgp expression) and HCT116 (low Pgp expression). The day before the assay, cells were seeded and cultivated overnight at 37 °C. Titration of the payloads diluted in medium was added to the cells and incubated for 48 hours at 37 °C. Finally, cell viability was analyzed by crystal violet staining.

[2] = test system: HCT15 (high Pgp expression); test: Cell viability assay (crystal violet staining), payloads, HCT15; type: cell-based; conditions: HCT15, 48 hours incubation, read-out: IC 50 HCT15
Description: as §1

[3] = target: Fibroblast activation protein (FAP) on FAP-expressing HT1080-FAP cells (UniProt Q12884); test: cell-based or functional assay
[4] = target: Fibroblast activation protein (FAP) on FAP-expressing HT1080-FAP cells (UniProt Q12884); test: flow cytometry on HT1080-FAP cells, PE-labeled anti-human Fc secondary antibody, MFI
[5] = target: T1, Fibroblast activation protein (FAP) on FAP-expressing HT1080-FAP cells (UniProt Q12884 1-760, limits assumed); test: cell-based or functional assay
T1 sequence (looked up): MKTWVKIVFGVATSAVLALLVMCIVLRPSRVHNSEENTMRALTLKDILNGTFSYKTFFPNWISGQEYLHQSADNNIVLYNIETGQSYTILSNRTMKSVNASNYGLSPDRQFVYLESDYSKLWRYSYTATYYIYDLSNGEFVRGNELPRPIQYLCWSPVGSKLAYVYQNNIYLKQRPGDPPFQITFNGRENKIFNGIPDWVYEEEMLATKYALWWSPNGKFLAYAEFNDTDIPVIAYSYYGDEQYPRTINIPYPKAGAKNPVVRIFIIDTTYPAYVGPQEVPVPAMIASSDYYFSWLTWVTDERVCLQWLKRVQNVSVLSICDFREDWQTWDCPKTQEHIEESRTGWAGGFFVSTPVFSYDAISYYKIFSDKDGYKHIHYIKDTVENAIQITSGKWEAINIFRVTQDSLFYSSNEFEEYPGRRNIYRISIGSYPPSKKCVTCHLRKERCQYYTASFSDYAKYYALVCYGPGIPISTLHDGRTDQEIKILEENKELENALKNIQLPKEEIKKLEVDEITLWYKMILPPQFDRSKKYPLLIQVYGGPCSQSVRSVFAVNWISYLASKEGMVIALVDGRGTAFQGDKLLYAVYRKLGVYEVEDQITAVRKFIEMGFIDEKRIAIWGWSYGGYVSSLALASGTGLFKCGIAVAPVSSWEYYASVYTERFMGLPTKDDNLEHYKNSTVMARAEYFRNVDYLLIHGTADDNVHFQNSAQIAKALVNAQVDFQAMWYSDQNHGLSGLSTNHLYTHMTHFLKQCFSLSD

[6] = target: T1, Fibroblast activation protein (FAP) on …; test: flow cytometry on HT1080-FAP cells, PE-labeled anti-human Fc secondary antibody, MFI
[7] = test system: HT1080-FAP cells; test: ADC cytotoxic activity, cell viability assay, HT1080-FAP; type: cell-based
Description: (§2) OMTX105 cytotoxic activity was analyzed via cell viability assay using HT1080-FAP and HT1080-WT cells. […] Here, a concentration of half-maximal killing of 64 pM for OMTX105 was determined compared to 750 pM for OMTX705. […] Specificity ratio between both cell lines was 1,205 for OMTX105 while for OMTX705 the value was 82 (Figure 3). Table 4: Comparative in vitro binding and cytotoxic activity values of OMTX105 and OMTX705 ADCs

[8] = test system: Panc007 pancreatic ductal adenocarcinoma patient derived xenograft; test: In vivo efficacy and tolerability in the Panc007 patient-derived xenograft model; set-up: species or system female Athymic nude-Foxn1 (nude/nude) mice; conditions: for TGI value: day 28
Description: The antitumor activity of OMTX105 vs OMTX705 was evaluated in the Panc007 pancreatic ductal adenocarcinoma patient derived xenograft mode in female Athymic nude-Foxn1 (nude/nude) mice.
Both OMTX105 and OMTX705 were administered intravenously at 5 and 20 mg/kg once a week for 4 weeks.

[9] = test system: HT1080-WT cells; test: ADC cytotoxic activity, cell viability assay, HT1080-WT; type: cell-based; conditions: read-out: Concentration of half maximal killing HT1080 WT
Description: as §2

[10] = test system: HT1080-FAP transfected cells; test: In vivo efficacy and tolerability in the HT1080-FAP tumor model with huPBMCs; set-up: species or system female NOD scid gamma (NSG) mice
Description: To evaluate the in vivo efficacy of OMTX1 05 and OMTX705, both ADCs were tested in female NOD scid gamma (NSG) mice co-inoculated with HT1080-FAP transfected cells and huPBMCs.
After 7 days, mice were randomized according to tumor size in the different treatment groups. Treatments with OMTX105 and OMTX705 as single agents were initiated, both with a weekly intravenous dose of 20 mg/kg over 3 weeks.
Tumor volume and animal weight were measured 3 times a week to monitor the evolution of tumor growth and weight change upon treatment.

[11] = 5 and 20 mg/kg intravenously once a week for 4 weeks
[12] = weekly intravenous dose of 20 mg/kg over 3 weeks

In the case of `CC[C@H](C)[C@@H]([C@@H](CC(=O)N1CCC[C@H]1[C@H](OC)[C@@H](C)C(=O)N[C@H](C)[C@@H](O)c1ccccc1)OC)N(C)C(=O)[C@@H](NC(=O)[C@@H](NC)C(C)C)C(C)C` [MMAE, Monomethyl auristatin E] (H-[NMeV]V[Dil][Dolaproine]-X1), the IC50 [1] is reported as 2.5 ± 0.4 nM, the IC50 ([1]; Homo sapiens, HCT-116, 48 h) is reported as 3 nM and the IC50 [2] is reported as 39.5 ± 10.1 nM. The IC50 ([2]; Homo sapiens, HCT-15, 48 h) was 40 nM.

“OMTX705 antibody-drug conjugate (anti-FAP monoclonal antibody conjugated to a cytolysin payload)” was tested, and the Concentration of half maximal killing, HT1080FAP (cell viability assay) [3] was 750 pM, the Specificity ratio between HT1080WT and HT1080FAP (cell viability assay) [3] was 82 and the EC50 [4] was 0.204 nM.

B1: OMTX105 antibody-drug conjugate (anti-FAP IgG antibody conjugated with the drug-linker vcMMAE) (antibody, V domains shown)
VH: QVQLVQSGAEVKKPGASVKVSCKASGYTFTENIIHWVRQAPGQGLEWMGWFHPGSGSIKYNEKFKDRVTMTADTSTSTVYMELSSLRSEDTAVYYCARHGGTGRGAMDYWGQGTLVTVSS
VL: DIQMTQSPSSLSASVGDRVTITCRASKSVSTSAYSYMHWYQQKPGKAPKLLIYLASNLESGVPSRFSGSGSGTDFTLTISSLQPEDFATYYCQHSRELPYTFGQGTKLEIKR
modifications: drug-linker vcMMAE on cysteine residues of the antibody (non-site specific, thiol-based); DAR 3.92; the cysteines are not stated
notes: also called OMTX105 ADC; anti-FAP MMAE ADC
In the case of B1, the “Specificity ratio between HT1080WT and HT1080FAP (cell viability assay)” value [5] is reported as 1200 and the EC50 [6] is reported as 0.255 nM.

B2: OMTX105: anti-FAP IgG antibody conjugated with the drug-linker vcMMAE, through thiol-based reaction on the cysteine residues of the antibody (conjugate)
heavy: QVQLVQSGAEVKKPGASVKVSCKASGYTFTENIIHWVRQAPGQGLEWMGWFHPGSGSIKYNEKFKDRVTMTADTSTSTVYMELSSLRSEDTAVYYCARHGGTGRGAMDYWGQGTLVTVSSASTKGPSVFPLAPSSKSTSGGTAALGCLVKDYFPEPVTVSWNSGALTSGVHTFPAVLQSSGLYSLSSVVTVPSSSLGTQTYICNVNHKPSNTKVDKKVEPKSCDKTHTCPPCPAPPVAGPSVFLFPPKPKDTLMISRTPEVTCVVVDVSHEDPEVKFNWYVDGVEVHNAKTKPREEQYNSTYRVVSVLTVLHQDWLNGKEYKCKVSNKGLPSSIEKTISKAKGQPREPQVYTLPPSRDELTKNQVSLTCLVKGFYPSDIAVEWESNGQPENNYKTTPPVLDSDGSFFLYSKLTVDKSRWQQGNVFSCSVMHEALHNHYTQKSLSLSPGK
light: DIQMTQSPSSLSASVGDRVTITCRASKSVSTSAYSYMHWYQQKPGKAPKLLIYLASNLESGVPSRFSGSGSGTDFTLTISSLQPEDFATYYCQHSRELPYTFGQGTKLEIKRTVAAPSVFIFPPSDEQLKSGTASVVCLLNNFYPREAKVQWKVDNALQSGNSQESVTEQDSKDSTYSLSSTLTLSKADYEKHKVYACEVTHQGLSSPVTKSFNRGEC
With B2 the EC50 ([7]; HT1080-FAP cells, read-out: Concentration of half maximal killing HT1080FAP) was 0.064 ± 0.033 nM, the “Specificity ratio between HT1080WT and HT1080FAP” value ([7]; ratio of half maximal killing concentrations, HT1080-WT to HT1080-FAP) was 1,205 and the TGI value ([8]; 5 mg/kg intravenously once a week for 4 weeks) was 85%. The TGI value ([8]; 20 mg/kg intravenously once a week for 4 weeks) was 136%, the “adverse effects or animal death” value [8, 11] was “no adverse effects or animal death” and the “tolerability (body weight data and clinical observations)” value [8, 11] was “well tolerated”. For the same molecule, the weight loss ([8]; both 5 mg/kg and 20 mg/kg, after 56 days) was “no weight loss observed”, the EC50 [9] was 77.2 nM and the tolerability ([10]; 20 mg/kg, 21-day test period) was “well tolerated”. The complete response [10, 12] was “complete response in this model at day 7”, the “percentage tumor growth inhibition (TGI)” value [10, 12] was 104.98% and the “weight loss, toxic effect” value ([10]; weekly intravenous dose of 20 mg/kg, 21-day test period) was “No weight loss, nor toxic effect”.
